Data as given in PMC10397247.
Values belong to the binder of their own block, whether it stands above or below them.

Tests used:
O6-bN = target: T1, O6-bN; assay: two-hybrid library CCNG1;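 note: natural log of median RNA to DNA barcode read ratio; higher means stronger binding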
T1 chain: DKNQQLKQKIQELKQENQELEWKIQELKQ

O7-bN = target: T2, O7-bN; assay: two-hybrid library CCNG1;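 note: natural log of median RNA to DNA barcode read ratio; higher means stronger binding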
T2 chain: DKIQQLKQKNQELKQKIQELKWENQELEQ

O4-bN = target: T3, O4-bN; assay: two-hybrid library CCNG1;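 note: natural log of median RNA to DNA barcode read ratio; higher means stronger binding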
T3 chain: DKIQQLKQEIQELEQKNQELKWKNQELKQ

O5-bN = target: T4, O5-bN; assay: two-hybrid library CCNG1;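 note: natural log of median RNA to DNA barcode read ratio; higher means stronger binding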
T4 chain: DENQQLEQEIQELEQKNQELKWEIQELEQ

O8-bN = target: T5, O8-bN; assay: two-hybrid library CCNG1;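 note: natural log of median RNA to DNA barcode read ratio; higher means stronger binding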
T5 chain: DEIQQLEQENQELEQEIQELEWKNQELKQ

O2-bN = target: T6, O2-bN; assay: two-hybrid library CCNG1;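 note: natural log of median RNA to DNA barcode read ratio; higher means stronger binding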
T6 chain: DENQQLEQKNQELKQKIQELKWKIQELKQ

O9-bN = target: T7, O9-bN; assay: two-hybrid library CCNG1
T7 chain: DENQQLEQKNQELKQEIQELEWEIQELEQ

O3-bN = target: T8, O3-bN; assay: two-hybrid library CCNG1
T8 chain: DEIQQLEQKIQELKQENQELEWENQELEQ

P9mSN = target: T9, P9mSN; assay: two-hybrid library CCNG1
T9 chain: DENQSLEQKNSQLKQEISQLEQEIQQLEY

P8mSN = target: T10, P8mSN; assay: two-hybrid library CCNG1
T10 chain: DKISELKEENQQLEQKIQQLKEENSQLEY

P7mSN = target: T11, P7mSN; assay: two-hybrid library CCNG1
T11 chain: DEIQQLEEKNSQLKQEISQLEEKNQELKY

P10-AA = target: T12, P10-AA; assay: two-hybrid library CCmax; details: mean of both orientations
T12 chain: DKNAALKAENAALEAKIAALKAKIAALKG

O8-AA = target: T13, O8-AA; assay: two-hybrid library CCmax; details: mean of both orientations
T13 chain: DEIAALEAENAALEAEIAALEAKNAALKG

O6-AA = target: T14, O6-AA; assay: two-hybrid library CCmax; details: mean of both orientations
T14 chain: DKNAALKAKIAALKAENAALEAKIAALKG

O7-AA = target: T15, O7-AA; assay: two-hybrid library CCmax; details: mean of both orientations
T15 chain: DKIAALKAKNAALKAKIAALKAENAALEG

O5-AA = target: T16, O5-AA; assay: two-hybrid library CCmax; details: mean of both orientations
T16 chain: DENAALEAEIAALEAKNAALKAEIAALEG

O4-AA = target: T17, O4-AA; assay: two-hybrid library CCmax
T17 chain: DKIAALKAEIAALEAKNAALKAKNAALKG

P9-AA = target: T18, P9-AA; assay: two-hybrid library CCmax; details: mean of both orientations
T18 chain: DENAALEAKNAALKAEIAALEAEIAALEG

P9A-bS = target: T19, P9A-bS; assay: two-hybrid library CCNG1
T19 chain: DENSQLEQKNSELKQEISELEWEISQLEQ

P8A-bS = target: T20, P8A-bS; assay: two-hybrid library CCNG1
T20 chain: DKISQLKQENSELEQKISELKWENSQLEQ

O16-bN = target: T21, O16-bN; assay: two-hybrid library CCNG1
T21 chain: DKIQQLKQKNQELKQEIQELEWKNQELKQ

4H346-bN = target: T22, 4H346-bN; assay: two-hybrid library CCNG1
T22 chain: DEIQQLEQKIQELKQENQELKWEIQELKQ

4H3427-bN = target: T23, 4H3427-bN; assay: two-hybrid library CCNG1
T23 chain: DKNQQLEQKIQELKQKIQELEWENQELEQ

4H4073-bN = target: T24, 4H4073-bN; assay: two-hybrid library CCNG1
T24 chain: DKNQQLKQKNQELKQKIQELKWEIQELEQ

4H683-bN = target: T25, 4H683-bN; assay: two-hybrid library CCNG1
T25 chain: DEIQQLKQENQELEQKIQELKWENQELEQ

4H780-bN = target: T26, 4H780-bN; assay: two-hybrid library CCNG1
T26 chain: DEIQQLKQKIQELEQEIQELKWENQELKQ

4H457-bN = target: T27, 4H457-bN; assay: two-hybrid library CCNG1
T27 chain: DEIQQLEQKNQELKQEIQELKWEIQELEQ

4H918-bN = target: T28, 4H918-bN; assay: two-hybrid library CCNG1
T28 chain: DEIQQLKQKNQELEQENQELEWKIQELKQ

4H3926-bN = target: T29, 4H3926-bN; assay: two-hybrid library CCNG1
T29 chain: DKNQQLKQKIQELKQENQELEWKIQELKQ

4H575-bN = target: T30, 4H575-bN; assay: two-hybrid library CCNG1
T30 chain: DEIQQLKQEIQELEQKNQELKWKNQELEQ

4H968-bN = target: T31, 4H968-bN; assay: two-hybrid library CCNG1
T31 chain: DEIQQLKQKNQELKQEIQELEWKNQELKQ

4H953-bN = target: T32, 4H953-bN; assay: two-hybrid library CCNG1
T32 chain: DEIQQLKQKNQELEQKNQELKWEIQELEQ

4H797-bN = target: T33, 4H797-bN; assay: two-hybrid library CCNG1
T33 chain: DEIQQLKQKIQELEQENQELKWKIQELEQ

4H3010-bN = target: T34, 4H3010-bN; assay: two-hybrid library CCNG1
T34 chain: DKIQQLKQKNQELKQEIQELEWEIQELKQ

4H855-bN = target: T35, 4H855-bN; assay: two-hybrid library CCNG1
T35 chain: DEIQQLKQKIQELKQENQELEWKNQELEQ

4H754-bN = target: T36, 4H754-bN; assay: two-hybrid library CCNG1
T36 chain: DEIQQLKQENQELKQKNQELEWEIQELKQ

4H2702-bN = target: T37, 4H2702-bN; assay: two-hybrid library CCNG1
T37 chain: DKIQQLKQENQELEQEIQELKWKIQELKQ

4H3112-bN = target: T38, 4H3112-bN; assay: two-hybrid library CCNG1
T38 chain: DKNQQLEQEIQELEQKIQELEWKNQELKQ

P8bHq = target: T39, P8bHq; assay: two-hybrid library CCNG1
T39 chain: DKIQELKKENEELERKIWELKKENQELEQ

P7bHq = target: T40, P7bHq; assay: two-hybrid library CCNG1
T40 chain: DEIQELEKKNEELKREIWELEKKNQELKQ

P9bHq = target: T41, P9bHq; assay: two-hybrid library CCNG1
T41 chain: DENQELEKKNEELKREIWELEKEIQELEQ

P8A-bH = target: T42, P8A-bH; assay: two-hybrid library CCNG1
T42 chain: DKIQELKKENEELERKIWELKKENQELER

P7A-bH = target: T43, P7A-bH; assay: two-hybrid library CCNG1
T43 chain: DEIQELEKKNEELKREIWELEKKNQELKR

P9A-bH = target: T44, P9A-bH; assay: two-hybrid library CCNG1
T44 chain: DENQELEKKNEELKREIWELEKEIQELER

4H4001-bN = target: T45, 4H4001-bN; assay: two-hybrid library CCNG1
T45 chain: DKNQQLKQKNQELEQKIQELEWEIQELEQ

4H883-bN = target: T46, 4H883-bN; assay: two-hybrid library CCNG1
T46 chain: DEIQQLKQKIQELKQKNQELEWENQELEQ

4H2697-bN = target: T47, 4H2697-bN; assay: two-hybrid library CCNG1
T47 chain: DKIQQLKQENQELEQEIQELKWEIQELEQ

4H3606-bN = target: T48, 4H3606-bN; assay: two-hybrid library CCNG1
T48 chain: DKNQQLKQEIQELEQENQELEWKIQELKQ

4H331-bN = target: T49, 4H331-bN; assay: two-hybrid library CCNG1
T49 chain: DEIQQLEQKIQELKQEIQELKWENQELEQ

4H370-bN = target: T50, 4H370-bN; assay: two-hybrid library CCNG1
T50 chain: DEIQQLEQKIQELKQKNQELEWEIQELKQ

4H3782-bN = target: T51, 4H3782-bN; assay: two-hybrid library CCNG1
T51 chain: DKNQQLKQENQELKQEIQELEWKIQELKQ

4H687-bN = target: T52, 4H687-bN; assay: two-hybrid library CCNG1
T52 chain: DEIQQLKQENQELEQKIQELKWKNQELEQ

4H607-bN = target: T53, 4H607-bN; assay: two-hybrid library CCNG1
T53 chain: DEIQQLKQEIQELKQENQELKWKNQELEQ

4H967-bN = target: T54, 4H967-bN; assay: two-hybrid library CCNG1
T54 chain: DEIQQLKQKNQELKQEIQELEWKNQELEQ

4H72-bN = target: T55, 4H72-bN; assay: two-hybrid library CCNG1
T55 chain: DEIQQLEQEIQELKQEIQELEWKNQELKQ

4H462-bN = target: T56, 4H462-bN; assay: two-hybrid library CCNG1
T56 chain: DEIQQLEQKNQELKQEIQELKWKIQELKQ

4H568-bN = target: T57, 4H568-bN; assay: two-hybrid library CCNG1
T57 chain: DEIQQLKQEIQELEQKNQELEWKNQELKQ

4H3843-bN = target: T58, 4H3843-bN; assay: two-hybrid library CCNG1
T58 chain: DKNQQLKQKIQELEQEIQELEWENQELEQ

4H3189-bN = target: T59, 4H3189-bN; assay: two-hybrid library CCNG1
T59 chain: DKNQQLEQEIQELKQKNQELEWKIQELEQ

interaction score (P10-AA): -0.869
interaction score (O8-AA): -0.637
interaction score (O6-AA): -0.0762
interaction score (O7-AA): -1.28
interaction score (O5-AA): -0.641
interaction score (O4-AA): -1.05
interaction score (P9-AA): -1.16
Binder: DKIAALKAEIAALEAKNAALKAKNAALKG [O4-AA]

interaction score (4H346-bN): -0.668
interaction score (4H3427-bN): -0.588
interaction score (4H4073-bN): 2.14
interaction score (4H683-bN): 0.0387
interaction score (4H780-bN): -0.44
interaction score (4H457-bN): 1.25
interaction score (4H918-bN): -0.128
interaction score (4H3926-bN): 0.223
interaction score (4H575-bN): -0.212
interaction score (4H968-bN): 1.31
interaction score (4H953-bN): -0.0124
interaction score (4H797-bN): 0.189
interaction score (4H3010-bN): 2.05
interaction score (4H855-bN): -1.49
interaction score (4H754-bN): -1.18
interaction score (4H2702-bN): 1.44
interaction score (4H3112-bN): -0.298
Binder: DKIQQLKQENQELEQEIQELKWKIQELKQ [4H2702-bN]

interaction score (P8A-bH): 0.924
interaction score (P7A-bH): 1.35
interaction score (P9A-bH): 0.983
Binder: DKNQELKKEIEELERENWELEKKIQELKR [P6A-bH]

interaction score (4H4001-bN): -0.819
interaction score (4H883-bN): -0.654
interaction score (4H2697-bN): -0.736
interaction score (4H3606-bN): -0.924
interaction score (4H331-bN): -0.941
interaction score (4H370-bN): -0.695
interaction score (4H918-bN): -1.97
interaction score (4H953-bN): -0.808
interaction score (4H797-bN): -0.83
interaction score (4H3782-bN): -1.03
interaction score (4H687-bN): -1.12
interaction score (4H607-bN): -1.63
interaction score (4H967-bN): -1.15
interaction score (4H72-bN): -1.14
interaction score (4H462-bN): 1.31
interaction score (4H568-bN): -1.07
interaction score (4H3843-bN): -0.916
interaction score (4H3189-bN): -1.43
Binder: DKIQQLKQENQELEQEIQELKWEIQELEQ [4H2697-bN]

interaction score (O6-bN): -0.337
interaction score (O7-bN): -1.23
interaction score (O4-bN): 2.41
interaction score (O5-bN): -0.619
interaction score (O8-bN): -0.285
interaction score (O9-bN): -0.842
interaction score (O3-bN): -0.142
Binder: DEIQQLEQKIQELKQENQELEWENQELEQ [O3-bN]

The remaining lines, values behind:

Binder: DENQQLEQKNQELKQKIQELKWKIQELKQ [O2-bN]
interaction score (O6-bN): -1.5
interaction score (O7-bN): -0.634
interaction score (O4-bN): -1.97
interaction score (O5-bN): -0.76
interaction score (O8-bN): 0.817
interaction score (O2-bN): -0.646
interaction score (O9-bN): 0.719
interaction score (O3-bN): -1.2

Binder: DEIQQLEEKNSQLKQEISQLEEKNQELKY [P7mSN]
interaction score (P9mSN): -0.424
interaction score (P8mSN): 0.927
interaction score (P7mSN): -0.219

Binder: DKISQLKQENSELEQKISELKWENSQLEQ [P8A-bS]
interaction score (P9A-bS): -0.26
interaction score (P8A-bS): -0.428

Binder: DKIQQLKQKNQELKQEIQELEWKNQELKQ [O16-bN]
interaction score (O6-bN): 0.821
interaction score (O7-bN): -0.333
interaction score (O4-bN): -0.0984
interaction score (O5-bN): -2.84
interaction score (O8-bN): 0.95
interaction score (O2-bN): -0.944
interaction score (O9-bN): -0.976
interaction score (O16-bN): 0.145
interaction score (O3-bN): -0.113

Binder: DEIQELEKKNEELKREIWELEKKNQELKQ [P7bHq]
interaction score (P8bHq): 2.08
interaction score (P7bHq): -1.98
interaction score (P9bHq): 0.211

Binder: DEIQELEKKNEELKREIWELEKKNQELKR [P7A-bH]
interaction score (P8A-bH): 1.64
interaction score (P7A-bH): -0.0377
interaction score (P9A-bH): -0.442
